Test results reported in US20250345467A1, “DENDRIMER FOR THERAPY AND IMAGING” (priority 2018, published 2025).

Legend:
[1] = tested on: DU-145 subcutaneous tumours; experiment: Therapeutic study with radionuclide-containing dendrimers, DU-145 subcutaneous tumours; type: in vivo, Balb/C nude mice; conditions: FIG. 20
From the text: Healthy male Balb/C nude mice (˜20 g) from 8 weeks old were obtained from the ARC and used for this study. Mice were imported into the animal holding facility and monitored for 1 week prior to the study in order to acclimatise to the environment prior to injection of cells. All animals were provided with free access to food and water before and during the imaging experiments which were approved by the Animal Ethics Committee.
The following compounds were used in the study: • Example 4b • Example 5 • Jevtana® (cabazitaxel) • Comparative example A: a non-radionuclide-containing dendrimer, which is BHALys[Lys]32[α-DGA-Cabazitaxel]32†[ε-PEG˜2100]32‡. […] The actual mean number of PEG˜2100 groups attached to the BHALys[Lys]32 was determined experimentally by ^1H NMR. […]
78 mice were injected with 4×10^6 DU-145 cells in Matrigel into the right flank to induce subcutaneous tumours. Tumour volume and body mass was monitored twice per week before mice with evident tumour growth (approximately […] in volume, tumour volume=½ (length×width^2)) were randomly assigned to groups and injected with compounds according to the schedule outlined in the table below, at day 0, 7 and 14. Following injections, the mice were monitored three times per week for tumour volume and body mass. […]

[2] = Organ biodistribution, clearance and health monitoring in the prostate cancer xenograft study; type: in vivo, Balb/C nude mice; conditions: Zr-89 labelled, mice bearing DU-145 or PC3 xenografts, whole study (9 days)
Experimental: The accumulation of two different dendrimer constructs in two different murine xenograft models of prostate cancer (DU145 and PC3 cell lines) was investigated. The two different constructs were compound 1b and 3 which are pre-conjugated with DFO, which were labelled with 89Zr for subsequent imaging studies. The biodistribution was measured by PET-CT out to 9 days in two different tumour xenografts and then validated by ex vivo gamma scintillation of excised organs at day 9.
Dendrimers were labelled and purified, validated by radioTLC prior to injection into the animals. Imaging was conducted in a cohort of n=4 mice for each cell line and each dendrimer. Standard health of the mice was monitored by score sheet and mouse weight over the complete timeframe of the study.
Healthy male Balb/C nude mice (˜20 g) from 8 weeks old were obtained from the ARC and used for this study. Mice were imported into the animal holding facility and monitored for 1 week prior to the study in order to acclimatise to the environment prior to injection of cells. […]
Mice (n=4 per group) bearing DU-145 or PC3 xenografts were injected with Zr-89 labelled dendrimers (compounds 1b and 3) via tail-vein. […] At 216 hrs post-injection, the organs were removed and signal intensity quantified by ex vivo gamma analysis. Faecal pellets were also measured for activity at this timepoint. […]

[3] = tested on: spontaneous gliomas (high grade glioma mouse model); experiment: PET-MRI tumour imaging study, glioblastoma; type: in vivo, mice; conditions: Zr-89 radiolabelled, approximately 5 MBq; for % ID/g at 40 hrs: 40 hrs post-injection; for % ID/g at 5 days: 5 days post-injection
From the text: The aim of this study was to assess the level of accumulation of example radionuclide-containing dendrimers in mice bearing spontaneous gliomas. This model provides a route to effectively assess the ability to both cross the blood-brain-barrier (BBB) as well as accumulate in tumour tissue.
Gt(ROSA)26So^rtm14(CAG-tdTomato)Hze 20023653 was crossed with Pten^tm2MAK; Rb1^tm2Bm; Trp53^tm1Bm; Tg(GFAP-cre/Esr1*,−lacZ)BSbk^31,44-47 (alleles) and backcrossed six generations to latter mice to generate Gt(ROSA)26Sor^tm14(CAG-tdTomato)Hze; Pten^tm2MAK; Rb1^tm2Bm; Trp53^tm1Bm; Tg(GFAP-cre/Esr1*,−lacZ)BSbk (high grade glioma mouse model; HGG). Mice were maintained on a predominantly FVB/NJ background with contributions from 129/SV and C57Bl6. To induce Cre recombinase and thereby tumor formations, 20 mg/ml Tamoxifen (Sigma-Aldrich) dissolved in corn oil (Sigma-Aldrich) was injected intraperitoneally. Up to 200 mg/kg body weight was administered weekly for 3 consecutive weeks after postnatal day (P) 30 (range P30-44). Animal's health and welfare was monitored up to twice daily and animals were euthanized based on morbidity requirement.
91 μL Zr-89 oxalate in 1 M oxalic acid (Perkin Elmer) was diluted with 78 μL 1 M Na2CO3 to neutralize pH. Dendrimer 1b was dissolved in 0.5 M HEPES (pH 7.5). 33 μL neutralized Zr-89 stock (approximately 15 MBq) was added to the dendrimer (146 μg) to give 100-fold excess of the dendrimer to Zr-89 and labelling was allowed to proceed at room temperature for 1 hour. The sample was then buffer exchanged into phosphate-buffered saline using Zeba Spin Desalting Columns (7 kDa MWCO, Thermo Fisher Scientific). 1 μL sample of the solution was taken and spotted on thin layer chromatography paper (Agilent iTLC-SG Glass microfiber chromatography paper impregnated with silica gel) and run with 50 mM diethylenetriaminepentaacetic acid (DTPA) as the eluent. Control experiments were conducted to monitor the elution behaviour of unbound Zr-89 for quality control. Plates were then imaged on a Bruker In Vivo MS FX Pro imaging system using a radioisotopic phosphor screen. ˜100% chelation of the Zr-89 was observed and so the dendrimer was used directly for the imaging experiments.
Anaesthetized mice, with a cannulated tail vein, were placed in a combined MRI/PET system, comprising a 300 mm bore 7T ClinScan, running Siemens VB17, and removable PET insert containing 3 rings of 16 detector blocks with 15×15 LSO crystals (1.6×1.6×10 mm) per block, at the centre of the magnet bore operating under Siemens Inveon Acquisition Workplace (IAW) (Bruker, Germany). A 23 mm ID mouse head MRI RF coil inside the PET ring was used to acquire mouse head images simultaneously with the PET acquisition.
Mice were injected with approximately 5 MBq of Zr-89 labelled dendrimer 1b and imaged 40 hours and 5 days post-injection. At each imaging point a dose of Gadovist® contrast agent was injected to obtain pre- and post-contrast T1, T2, and dynamic image data. The injection dose at each timepoint was comprised of 50 μl Gadovist® diluted with PBS (1×) to give a total volume of 200 μl. This volume was injected via a catheter inserted into the tail vein in a slow bolus injection. Where collected, dynamic PET data acquisition was performed for 60 min. Prior to injection, fast localizer images and a 3D T1 weighted volumetric interpolated breath-hold examination VIBE sequence was acquired. Dynamic MRI images were acquired with a Gradient echo FLASH sequence, with 3 slices acquired each 2 seconds interval. The PET acquisition and dynamic MRI imaging was started simultaneously, a 2-3 min baseline period acquired and then the solution was injected. Following 15 min of dynamic MRI scanning, the T1 weighted VIBE was repeated, structural T2 weighted spin echo images acquired and a […] T1 weighted VIBE_DIXON sequence acquired to generate a 3D T1 map. […]

Row | Substance | suppression of tumour growth, ranking among groups ([1]; group 4: higher dose, 4b 8 mg/kg (6 MBq) day 0, then Comparative Example A 8 mg/kg days 7 and 14) | suppression of tumour growth ([1]; groups 4 and 7: Lu-177 labelled 4b 8 or 5 mg/kg (6 MBq) day 0, then Comparative Example A days 7 and 14) | adverse health effects [2] | % ID/g at 40 hrs ([3]; Brain (minus tumour)) | % ID/g at 5 days ([3]; Brain (minus tumour)) | % ID/g at 40 hrs ([3]; Tumour) | % ID/g at 5 days ([3]; Tumour) | % ID/g at 40 hrs ([3]; Vascalature) | % ID/g at 5 days ([3]; Vascalature)
1 | BHALys[Lys]32[(α-DGA-CTX)27(α-DOTA)2(ε-PEG2000)32] [Compound 4b] | most effective | effective in suppressing tumour growth |  |  |  |  |  |  | 
2 | BHALys[Lys]32[(α-DGA-CTX)31(α-DFO)1(ε-PEG2000)32] [Compound 3] |  |  | no adverse health effects |  |  |  |  |  | 
3 | BHALys[Lys]32[(α-TDA-DTX)30(α-DFO)2(ε-PEG2000)32] [Compound 1b] |  |  | no adverse health effects | 2.0 % ID/g | 1.5 % ID/g | 4.3 % ID/g | 4.0 % ID/g | 2.3 % ID/g | 2.0 % ID/g
